{"source": "paper PMC13227277", "about": "“Targeting CIRP and IL-6R-mediated microglial inflammation to improve outcomes in intracerebral hemorrhage” (Journal of Advanced Research, 2025)", "molecules": {"B1": {"name": "recombinant human CIRP (cold-inducible RNA-binding protein) (natural protein, UniProt Q14011 1-172, looked up)", "chain": "MASDEGKLFVGGLSFDTNEQSLEQVFSKYGQISEVVVVKDRETQRSRGFGFVTFENIDDAKDAMMAMNGKSVDGRQIRVDQAGKSSDNRSRGYRGGSAGGRGFFRGGRGRGRGFSRGGGDRGYGGNRFESRSGGYGGSRDYYSSRSQSGGYSDRSSGGSYRDSYDSYATHNE", "notes": "UniProtKB Q14011 is printed for the docking; also called rhCIRP; human CIRBP; source: recombinant"}}, "key": {"[1]": {"tested_on": "Cirbp^−/− microglia vs WT microglia", "experiment": "TNF-α and IL-6 release, WT and Cirbp^−/− microglia with rmCIRP, ELISA", "type": "cell-based, mouse", "conditions": "CIRP treatment, 24 h, n = 3–4", "description": "(§1) ELISA was used to quantify CIRP, MD2, IL-6, and TNF-α concentrations in blood and cerebrospinal fluid samples. Samples were processed and stored under standardized conditions to preserve protein integrity. Each target protein was measured using commercial ELISA kits, following the manufacturer’s instructions: Mouse CIRBP ELISA Kit (CSB-EL005440MO, CUSABIO), Mouse TNF-α ELISA Kit (EK282, Lianke Bio), Mouse IL-6 ELISA Kit (CSB-E04639m, CUSABIO), and […].\n(§2) Primary cortical neurons were isolated from embryonic day 16–18 (E16–E18) C57BL/6 mouse embryos as previously described, and cultured in Neurobasal medium supplemented with B27 and GlutaMAX (Gibco).Primary microglial cells were isolated from the cortices of neonatal (day 1) C57BL/6J mice. After disinfection with 75 % ethanol, the skin and skull were removed, and the brains were placed in ice-cold HBSS. The meninges were peeled off, the cortex was collected, and the hippocampus was discarded. Tissues were digested with 0.25 % trypsin at 37 °C for 12 min, centrifuged at 1200 rpm for 5 min, and resuspended in complete medium. […]\nRBCs were isolated via density gradient centrifugation and labeled with CFSE before being stereotactically injected into the right striatum. […] Cell viability was assessed using a Fixable Viability Dye, and flow cytometric analysis was subsequently performed. […]"}, "microglia [2]": {"tested_on": "microglia", "experiment": "Cytokine mRNA and release in CIRP-stimulated microglia (RT-qPCR, ELISA)", "type": "cell-based, mouse", "description": "as §1\nas §2, with “medium. The suspension was transferred to a T75 flask with 15 mL of complete medium.” for “medium.”\n(§3) To mimic ischemic conditions, neurons at DIV7 were subjected to OGD. […] The supernatants were collected for subsequent CIRP quantification. […]"}, "microglia [3]": {"tested_on": "microglia", "experiment": "IL-6 release from CIRP-stimulated microglia, ELISA (TCC vs TC)", "type": "cell-based, mouse", "conditions": "peptides 10 μM pre-treated 0.5 h, then rmCIRP 1 μg/mL 24 h, n = 3", "experimental": "To validate the effects of TCC and TC in vitro, microglial cells were pre-treated with the peptides (10 μM) for 0.5 h, followed by stimulation with recombinant mouse CIRP (rmCIRP, 1 μg/mL) for 24 h to establish an inflammation model.\nELISA was used to quantify CIRP, MD2, IL-6, and TNF-α concentrations in blood and cerebrospinal fluid samples. Samples were processed and stored under standardized conditions to preserve protein integrity. Each target protein was measured using commercial ELISA kits, following the manufacturer’s instructions: Mouse CIRBP ELISA Kit (CSB-EL005440MO, CUSABIO), Mouse TNF-α ELISA Kit (EK282, Lianke Bio), Mouse IL-6 ELISA Kit (CSB-E04639m, CUSABIO), and Rat TNF-α ELISA Kit (EK382, Lianke Bio).\nAfter disinfection with 75 % ethanol, the skin and skull were removed, and the brains were placed in ice-cold HBSS. The meninges were peeled off, the cortex was collected, and the hippocampus was discarded. Tissues were digested with 0.25 % trypsin at 37 °C for 12 min, centrifuged at 1200 rpm for 5 min, and resuspended in complete medium. The suspension was transferred to a T75 flask with 15 mL of complete medium. After 14 days, microglial cells were harvested by shaking the flask at 270–280 rpm for 30 min, and the supernatant was collected. […] CIRP (1 μg/mL for 24 h) was added to the microglia, which were divided into PBS, CIRP, and CIRP + TCC groups. […]"}, "neurons": {"tested_on": "neurons", "experiment": "Neurons co-cultured with CIRP-treated microglial supernatant (CCK-8, immunofluorescence)", "type": "cell-based, mouse", "description": "Brain tissues were fixed in paraformaldehyde, dehydrated, and sectioned at 30 µm using a microtome (CM1900UV, Leica, Germany). Sections were floated onto glass slides and left overnight at room temperature. For cultured cells, after discarding the medium, cells were washed twice with PBS, fixed with precooled 4 % PFA at 4 °C for 10 min, and washed three times with PBS (10 min each) on a shaker. Cells were permeabilized with 0.3 % Triton X-100 in PBS for 20 min, blocked with 5 % donkey serum for 1 h, and incubated overnight at 4 °C with primary antibodies (Iba-1, Rabbit polyclonal, Wako; NeuN, Millipore; GFAP, CST; MBP, Abcam; SMI32, Millipore). The next day, sections were brought to room temperature, washed three times with PBST (PBS + Tween-20), and incubated with secondary antibodies for 1 h in the dark. […] Fluorescence was visualized using a DM4000B microscope and images were captured with a Leica TCS SP8 confocal microscope. […]\nas §3\nMicroglia were exposed to 1, 10 100 μM concentrations of TCC or TC and PBS respectively for 24 h, and cell viability was measured. […] Cell viability was assessed using the Cell Counting Kit-8 (C0038, Beyotime) according to the manufacturer’s protocol. Absorbance at 450 nm was measured to determine cell viability."}, "IL-6R": {"tested_on": "IL-6R", "experiment": "Co-immunoprecipitation of CIRP and IL-6R", "type": "binding", "conditions": "Co-IP, n = 3", "experimental": "Cells were divided into control and test groups. For transfection, solution A (plasmid diluted in Opti-MEM) and solution B (Lipofectamine 2000, Life Technologies, USA, diluted in Opti-MEM) were mixed at a 1:2 plasmid-to-lipofectamine ratio. After 6 h, the medium was replaced with DMEM, and GFP fluorescence was observed 24–48 h post-transfection to assess efficiency. Cells were divided into PBS, IL-6R, and CIRP (1 μg/mL for 24 h) groups for further analysis.\nThe beads were washed twice with lysis buffer to remove unbound proteins. Bound proteins were eluted by boiling the beads in sample buffer at 95°C for 3 min and subjected to Western blot analysis."}}}
{"molecule": "B1", "values": [{"measurement": "IL-6 and TNF-α secretion, Cirbp^−/− vs WT microglia", "setting": "[1]", "value": "marked decrease in the secretion of both IL-6 and TNF-α levels"}, {"measurement": "TNF-α and IL-6 mRNA in microglia", "setting": "microglia [2]; 24-hour CIRP stimulation with or without TCC, RT-qPCR, n = 3–6", "value": "upregulated the transcription of pro-inflammatory cytokines TNF-α and IL-6 in microglia"}, {"measurement": "TNF-α secretion by microglia", "setting": "microglia [2]; rmCIRP 1 μg/mL, 24 h, ELISA, n = 3", "value": "the secretion of TNF-α was markedly increased"}, {"measurement": "IL-6 release in culture supernatants", "setting": "microglia [3]", "value": "significantly increased IL-6 levels"}, {"measurement": "neuronal morphology and axonal integrity", "setting": "neurons; 24-hour co-culture with microglial supernatant, immunofluorescence, n = 4–6", "value": "altered morphology and reduced axonal integrity"}, {"measurement": "neuronal viability", "setting": "neurons; microglial supernatant following CIRP with or without TCC, CCK-8, 24 h, n = 3", "value": "impaired neuronal viability"}, {"measurement": "interaction between CIRP and IL-6R", "setting": "IL-6R", "value": "confirmed a interaction between CIRP and IL-6R"}]}
